The test system of this data set is Escherichia coli TOP10. Kind of data set: shrunken log2 fold change of peptide-encoding DNA abundance (4.5 h post-induction vs induction); higher = less antimicrobial activity (less host growth inhibition). Conditions: time post-induction: 4.5 h; library: site-saturation at positions 5, 18, 19, 20.
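Note: peptides expressed intracellularly from a pBAD plasmid library in pooled LB shake-flask culture, induced with 0.3% L-arabinose, DNA abundance read by NGS, three biological replicates, DESeq2 with apeglm shrinkage.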

As for RRIRERPPRLPRPRPRPANRPRP, the “shrunken log2 fold change” value is 0.111.

Turning to RRIRNRPPRLPRPRPRPDGSPRP, the “shrunken log2 fold change” value amounted to 0.0143.

On to RRIRFRPPRLPRPRPRPKGDPRP, for which the “shrunken log2 fold change” value stood at 0.054.

With RRIRQRPPRLPRPRPRPKRPPRP, the “shrunken log2 fold change” value amounted to 0.135.

Turning to RRIRYRPPRLPRPRPRPWHFPRP, the “shrunken log2 fold change” value was -1.15.

As for RRIRNRPPRLPRPRPRPMPGPRP, the “shrunken log2 fold change” value was 0.0352.

On to RRIRYRPPRLPRPRPRPDQQPRP, for which the “shrunken log2 fold change” value is -0.0144.

As for RRIRLRPPRLPRPRPRPRLSPRP, the “shrunken log2 fold change” value came out at 0.346.

Take RRIRERPPRLPRPRPRPTIGPRP: the “shrunken log2 fold change” value was -0.323.

For the sequence RRIRTRPPRLPRPRPRPIQGPRP, the “shrunken log2 fold change” value is -0.0537.

Consider RRIRMRPPRLPRPRPRPQVMPRP, for which the “shrunken log2 fold change” value is 0.0337.

Consider RRIRVRPPRLPRPRPRPFVQPRP, for which the “shrunken log2 fold change” value is -0.0696.

Consider RRIRSRPPRLPRPRPRPPQYPRP, for which the “shrunken log2 fold change” value is -0.0375.

As to RRIRPRPPRLPRPRPRPEECPRP, the “shrunken log2 fold change” value is -0.105.

On to RRIRNRPPRLPRPRPRPYSEPRP, for which the “shrunken log2 fold change” value is -2.12.

As for RRIRPRPPRLPRPRPRPLSNPRP, the “shrunken log2 fold change” value is -0.1.

Regarding RRIRDRPPRLPRPRPRPKWKPRP, the “shrunken log2 fold change” value was -0.00871.

In the case of RRIRSRPPRLPRPRPRPRTPPRP, the “shrunken log2 fold change” value worked out at 0.502.

RRIRHRPPRLPRPRPRPYQAPRP: the “shrunken log2 fold change” value is -0.00987.

For RRIRHRPPRLPRPRPRPTFCPRP, the “shrunken log2 fold change” value is -0.186.

On to RRIRLRPPRLPRPRPRPSFAPRP, for which the “shrunken log2 fold change” value is -0.067.

In the case of RRIRIRPPRLPRPRPRPIADPRP, the “shrunken log2 fold change” value was -0.0882.

As for RRIRARPPRLPRPRPRPWLYPRP, the “shrunken log2 fold change” value was -0.0506.

For the sequence RRIRDRPPRLPRPRPRPLRHPRP, the “shrunken log2 fold change” value is 0.358.

As to RRIRYRPPRLPRPRPRPFPCPRP, the “shrunken log2 fold change” value is -0.467.

As for RRIRWRPPRLPRPRPRPHIWPRP, the “shrunken log2 fold change” value is -0.131.

Consider RRIRSRPPRLPRPRPRPYAYPRP, for which the “shrunken log2 fold change” value was -0.315.

In the case of RRIRPRPPRLPRPRPRPAEKPRP, the “shrunken log2 fold change” value came out at 0.0387.

With RRIRTRPPRLPRPRPRPASLPRP, the “shrunken log2 fold change” value worked out at 0.105.

For RRIRIRPPRLPRPRPRPTRVPRP, the “shrunken log2 fold change” value came to 0.167.

In the case of RRIRIRPPRLPRPRPRPANNPRP, the “shrunken log2 fold change” value was -0.449.

As for RRIRARPPRLPRPRPRPDSPPRP, the “shrunken log2 fold change” value came out at 0.342.

For the sequence RRIRYRPPRLPRPRPRPYEPPRP, the “shrunken log2 fold change” value is -0.248.

For the sequence RRIRWRPPRLPRPRPRPGSMPRP, the “shrunken log2 fold change” value is -0.0806.

For the sequence RRIRVRPPRLPRPRPRPHMMPRP, the “shrunken log2 fold change” value is -0.659.

Consider RRIRIRPPRLPRPRPRPSGQPRP, for which the “shrunken log2 fold change” value was -0.0453.

Consider RRIRCRPPRLPRPRPRPNTRPRP, for which the “shrunken log2 fold change” value is -0.267.

As for RRIRCRPPRLPRPRPRPITCPRP, the “shrunken log2 fold change” value was -0.159.

Consider RRIRHRPPRLPRPRPRPQPFPRP, for which the “shrunken log2 fold change” value is -0.213.

Turning to RRIRTRPPRLPRPRPRPGCVPRP, the “shrunken log2 fold change” value was found to be 0.0396.

RRIRTRPPRLPRPRPRPERKPRP: the “shrunken log2 fold change” value was 0.0268.

Take RRIRGRPPRLPRPRPRPDPTPRP: the “shrunken log2 fold change” value stood at 1.06.

Take RRIRMRPPRLPRPRPRPAAVPRP: the “shrunken log2 fold change” value was 1.44.

In the case of RRIRTRPPRLPRPRPRPLDFPRP, the “shrunken log2 fold change” value is -0.19.

With RRIRVRPPRLPRPRPRPHVMPRP, the “shrunken log2 fold change” value was -0.526.

With RRIRHRPPRLPRPRPRPWQRPRP, the “shrunken log2 fold change” value was -0.1.

RRIRLRPPRLPRPRPRPAVNPRP: the “shrunken log2 fold change” value was -0.0174.

Consider RRIRRRPPRLPRPRPRPHYKPRP, for which the “shrunken log2 fold change” value was -0.487.

With RRIRNRPPRLPRPRPRPAMDPRP, the “shrunken log2 fold change” value was found to be 0.166.

As for RRIRIRPPRLPRPRPRPCYQPRP, the “shrunken log2 fold change” value is -0.44.

As for RRIRARPPRLPRPRPRPFHNPRP, the “shrunken log2 fold change” value was -0.625.

In the case of RRIRDRPPRLPRPRPRPNQKPRP, the “shrunken log2 fold change” value was found to be 0.18.

Regarding RRIRVRPPRLPRPRPRPHSVPRP, the “shrunken log2 fold change” value is -0.177.

In the case of RRIRVRPPRLPRPRPRPMHMPRP, the “shrunken log2 fold change” value was -0.164.

Take RRIRERPPRLPRPRPRPFPMPRP: the “shrunken log2 fold change” value was -0.423.

With RRIRCRPPRLPRPRPRPYFTPRP, the “shrunken log2 fold change” value was -0.774.

As to RRIRCRPPRLPRPRPRPKNHPRP, the “shrunken log2 fold change” value was -0.461.

Take RRIRRRPPRLPRPRPRPTNRPRP: the “shrunken log2 fold change” value was 0.282.

As to RRIRVRPPRLPRPRPRPKTTPRP, the “shrunken log2 fold change” value is -0.0198.

RRIRIRPPRLPRPRPRPKDRPRP: the “shrunken log2 fold change” value is -0.409.

Consider RRIRGRPPRLPRPRPRPMGKPRP, for which the “shrunken log2 fold change” value amounted to 0.375.

As to RRIRQRPPRLPRPRPRPAGCPRP, the “shrunken log2 fold change” value worked out at 0.409.

Regarding RRIRGRPPRLPRPRPRPCCEPRP, the “shrunken log2 fold change” value was determined as 0.528.

Turning to RRIRPRPPRLPRPRPRPGLSPRP, the “shrunken log2 fold change” value worked out at 0.206.

Turning to RRIRHRPPRLPRPRPRPGKCPRP, the “shrunken log2 fold change” value was -0.00911.

With RRIRIRPPRLPRPRPRPSGPPRP, the “shrunken log2 fold change” value was -0.21.

For the sequence RRIRRRPPRLPRPRPRPDSRPRP, the “shrunken log2 fold change” value is 0.0229.

As to RRIRHRPPRLPRPRPRPKVSPRP, the “shrunken log2 fold change” value is -0.112.

On to RRIRRRPPRLPRPRPRPKCCPRP, for which the “shrunken log2 fold change” value was 0.00261.

As for RRIRWRPPRLPRPRPRPFLIPRP, the “shrunken log2 fold change” value is -0.488.

RRIRQRPPRLPRPRPRPLTLPRP: the “shrunken log2 fold change” value was -0.104.

As to RRIRRRPPRLPRPRPRPFICPRP, the “shrunken log2 fold change” value was -0.0336.

Take RRIRIRPPRLPRPRPRPEAMPRP: the “shrunken log2 fold change” value amounted to 0.124.

As to RRIRRRPPRLPRPRPRPHPEPRP, the “shrunken log2 fold change” value turned out to be 0.0463.

Regarding RRIRMRPPRLPRPRPRPVPHPRP, the “shrunken log2 fold change” value was found to be 0.537.

Take RRIRERPPRLPRPRPRPVGRPRP: the “shrunken log2 fold change” value worked out at 0.233.

Take RRIRTRPPRLPRPRPRPPYIPRP: the “shrunken log2 fold change” value was -0.694.

RRIRIRPPRLPRPRPRPVFQPRP: the “shrunken log2 fold change” value is -0.19.

Turning to RRIRTRPPRLPRPRPRPHSGPRP, the “shrunken log2 fold change” value was -0.166.

Take RRIRYRPPRLPRPRPRPAFDPRP: the “shrunken log2 fold change” value was 0.105.

As to RRIRVRPPRLPRPRPRPEWMPRP, the “shrunken log2 fold change” value is 0.0845.

With RRIRHRPPRLPRPRPRPQFCPRP, the “shrunken log2 fold change” value is -0.208.

For the sequence RRIRWRPPRLPRPRPRPTWMPRP, the “shrunken log2 fold change” value is -0.029.

For RRIRCRPPRLPRPRPRPSCPPRP, the “shrunken log2 fold change” value was -0.407.

With RRIRKRPPRLPRPRPRPRMLPRP, the “shrunken log2 fold change” value was determined as 0.588.

In the case of RRIRTRPPRLPRPRPRPSDSPRP, the “shrunken log2 fold change” value is -0.214.

For the sequence RRIRMRPPRLPRPRPRPEMCPRP, the “shrunken log2 fold change” value was 3.01.

As for RRIRDRPPRLPRPRPRPFIEPRP, the “shrunken log2 fold change” value turned out to be 0.0849.

Regarding RRIRHRPPRLPRPRPRPFQFPRP, the “shrunken log2 fold change” value is 0.0952.

Take RRIRCRPPRLPRPRPRPNWSPRP: the “shrunken log2 fold change” value was -0.206.

Turning to RRIRTRPPRLPRPRPRPARLPRP, the “shrunken log2 fold change” value is 0.215.
